Laboratory results published in publication doi:10.1101/2024.11.10.622873 (bioRxiv, 2024).
Where two headings read alike, the source gives them in different places.

Columns and labels:
Assay in all cases: BLI
[1] = molecular target: COP-1, synthetic antibody fragment (sFab), with C-terminal histidine tag
[2] = molecular target: COP-1, synthetic antibody fragment (sFab), with C-terminal histidine tag; remark: listed apart in the source
[3] = molecular target: human claudin-18 splice variant 18.1 (human, UniProt P56856)
[4] = molecular target: human claudin-18 splice variant 18.2 (human, UniProt P56856-2)
human claudin-19 = human claudin-19 (human, UniProt Q8N6F1)
murine claudin-15 = murine claudin-15 (mouse, UniProt Q9Z0S5)
[5] = molecular target: C-terminal domain of Clostridium perfringens enterotoxin, in solution (Clostridium perfringens, UniProt P01558)
human occludin = human occludin (Homo sapiens, UniProt Q16625)
[6] = molecular target: human junctional adhesion molecule-A (Homo sapiens, UniProt Q9Y624)
human claudin-1 = human claudin-1 (human, UniProt O95832)
human claudin-3 = human claudin-3 (human, UniProt O15551)
human claudin-5 = human claudin-5 (human, UniProt O00501)
human claudin-6 = human claudin-6 (human, UniProt P56747)
human claudin-9 = human claudin-9 (human, UniProt O95484)
human claudin-17 = human claudin-17 (human, UniProt P56750)
Chain of human claudin-17 (P56750 whole entry): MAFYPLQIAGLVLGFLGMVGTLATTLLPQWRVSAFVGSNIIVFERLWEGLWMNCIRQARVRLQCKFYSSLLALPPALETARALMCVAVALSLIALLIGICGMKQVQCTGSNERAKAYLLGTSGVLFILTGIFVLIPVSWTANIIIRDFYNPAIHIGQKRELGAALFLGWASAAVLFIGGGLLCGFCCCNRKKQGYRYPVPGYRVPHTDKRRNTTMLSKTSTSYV

Chain of murine claudin-15 (Q9Z0S5 whole entry, the tested form may be a part): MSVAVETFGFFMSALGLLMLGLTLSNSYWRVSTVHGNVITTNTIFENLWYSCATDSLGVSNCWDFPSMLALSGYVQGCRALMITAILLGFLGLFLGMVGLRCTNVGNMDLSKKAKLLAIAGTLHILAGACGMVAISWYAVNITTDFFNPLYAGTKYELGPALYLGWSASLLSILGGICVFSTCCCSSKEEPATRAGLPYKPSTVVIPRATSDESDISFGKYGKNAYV
Chain of human claudin-19 (Q8N6F1 whole entry): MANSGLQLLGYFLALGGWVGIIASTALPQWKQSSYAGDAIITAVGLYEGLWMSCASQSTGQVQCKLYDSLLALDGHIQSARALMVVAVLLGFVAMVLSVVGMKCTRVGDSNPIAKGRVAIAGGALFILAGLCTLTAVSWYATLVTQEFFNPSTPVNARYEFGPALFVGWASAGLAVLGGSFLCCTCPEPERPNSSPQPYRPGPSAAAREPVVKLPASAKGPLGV
Chain of human claudin-9 (O95484 whole entry): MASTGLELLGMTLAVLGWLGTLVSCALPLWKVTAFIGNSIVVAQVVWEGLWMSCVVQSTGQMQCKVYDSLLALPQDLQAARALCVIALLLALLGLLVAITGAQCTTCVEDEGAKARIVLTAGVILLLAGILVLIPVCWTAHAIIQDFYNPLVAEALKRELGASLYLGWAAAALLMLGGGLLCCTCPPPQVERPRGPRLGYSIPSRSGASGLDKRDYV
Chain of C-terminal domain of Clostridium perfringens enterotoxin, in solution (P01558 198-319): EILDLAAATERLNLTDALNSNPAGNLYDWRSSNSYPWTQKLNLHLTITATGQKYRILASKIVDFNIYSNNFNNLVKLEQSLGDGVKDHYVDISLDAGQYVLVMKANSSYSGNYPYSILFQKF
Chain of human claudin-6 (P56747 whole entry): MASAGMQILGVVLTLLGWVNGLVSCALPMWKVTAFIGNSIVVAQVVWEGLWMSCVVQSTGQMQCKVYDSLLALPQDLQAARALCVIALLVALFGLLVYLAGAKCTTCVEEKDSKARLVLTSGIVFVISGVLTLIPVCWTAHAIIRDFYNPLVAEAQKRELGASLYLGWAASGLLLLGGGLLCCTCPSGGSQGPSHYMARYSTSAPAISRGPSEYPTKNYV
Chain of human claudin-5 (O00501 whole entry): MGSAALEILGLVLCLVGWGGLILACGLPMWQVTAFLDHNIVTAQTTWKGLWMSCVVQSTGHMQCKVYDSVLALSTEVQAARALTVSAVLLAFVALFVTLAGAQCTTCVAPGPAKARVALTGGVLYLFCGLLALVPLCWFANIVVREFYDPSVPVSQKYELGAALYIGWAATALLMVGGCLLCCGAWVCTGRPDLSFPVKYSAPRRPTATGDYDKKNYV
Chain of human claudin-3 (O15551 whole entry): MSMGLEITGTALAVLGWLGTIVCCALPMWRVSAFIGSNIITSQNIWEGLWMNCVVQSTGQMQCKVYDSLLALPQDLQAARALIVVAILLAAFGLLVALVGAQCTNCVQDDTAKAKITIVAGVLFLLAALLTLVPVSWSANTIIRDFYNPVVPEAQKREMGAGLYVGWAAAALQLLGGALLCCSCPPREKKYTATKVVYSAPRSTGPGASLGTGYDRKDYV
Chain of human claudin-1 (O95832 whole entry): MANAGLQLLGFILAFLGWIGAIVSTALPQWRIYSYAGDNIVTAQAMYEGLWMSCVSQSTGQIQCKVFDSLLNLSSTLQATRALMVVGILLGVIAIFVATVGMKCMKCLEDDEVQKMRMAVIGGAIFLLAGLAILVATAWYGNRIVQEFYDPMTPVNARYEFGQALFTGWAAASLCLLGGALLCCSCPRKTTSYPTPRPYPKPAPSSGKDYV

human claudin-4 (from UniProt O14493) (natural protein)
Kd [1]: 70.6 nM
Kd [2]: 106 nM
t1/2 of the complex [2]: 30 min

B1: COP-1, synthetic antibody fragment (sFab), with C-terminal histidine tag (Fab, V domains shown)
VH: EVQLVESGGGLVQPGGSLRLSCAASGFNFSSSYIHWVRQAPGKGLEWVASISSSSGSTSYADSVKGRFTISADTSKNTAYLQMNSLRAEDTAVYYCARWFHPWWWWEYLFRGAIDYWGQGTLVTVSS
VL: DIQMTQSPSSLSASVGDRVTITCRASQSVSSAVAWYQQKPGKAPKLLIYSASSLYSGVPSRFSGSRSGTDFTLTISSLQPEDFATYYCQQSSSSLITFGQGTKVEIK
Kd [3]: 92.4 nM
Kd [4]: 66.4 nM
Kd (human claudin-19): 62.2 nM
Kd (murine claudin-15): 59 nM
binding result [5]: no binding
binding result (human occludin): no binding (tested: 500 nM)
binding result [6]: no binding (tested: 500 nM)
Kd (human claudin-1): 61.3 nM
Kd (human claudin-3): 57.9 nM
Kd (human claudin-5): 75.8 nM
Kd (human claudin-6): 59.5 nM
Kd (human claudin-9): 66 nM
Kd (human claudin-17): 80.2 nM
